Where “and” joins values, the source holds several entries; their conditions need not be identical. Equal values may be shown once. Each block holds one substance with its values, some of them ahead of it.
Assays:
[1] = target: BMAL1 TAD (residues 579–626) (mouse) (UniProt Q9WTL8); test: NMR titration; 15N-1H HSQC of 100 μM 15N BMAL1 TAD WT or L606A/L607A with stepwise additions of CBP KIX (WT or 3mut), TAZ1 or TAZ2; 25°C; 10 mM MES pH 6.5, 50 mM NaCl, 10% D2O; KD from fits of concentration-dependent CSPs, apparent
BMAL1 TAD (residues 579–626) (mouse), sequence (Q9WTL8 585-632): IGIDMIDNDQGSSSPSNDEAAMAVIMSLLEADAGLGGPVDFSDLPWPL

[2] = target: BMAL1 TAD L606A/L607A (residues 579–626) (mouse) (UniProt Q9WTL8); test: as above
BMAL1 TAD L606A/L607A (residues 579–626) (mouse), sequence (Q9WTL8 585-632 L612A/L613A): as the sequence (Q9WTL8 585-632) above, with L28A, L29A counted along it

[3] = target: human histone octamer in the nucleosome core particle (Widom 601 DNA with tandem E-boxes) (human) (UniProt P04908); test: mass photometry; NCP tandem 6bp 10 nM with CLOCK:BMAL1 bHLH-PAS-AB 60 nM (1:6), 30 min at room temperature; 20 mM Tris-HCl pH 7.5, 100 mM KCl, 0.5 mM TCEP

Kd [1]: 160 µM
Substance: CBP KIX Y650A/A654Q/Y658A (3mut) (from UniProt P45481 586-672) (domain or fragment)

Kd [2]: 190 µM
Substance: CBP KIX domain (residues 586–672) (from UniProt P45481 586-672) (domain or fragment)

stoichiometry N [3]: 2 and 3
Substance: CLOCK:BMAL1 bHLH-PAS-AB heterodimer (from UniProt O08785 26-395; Q9WTL8-4 62-441) (complex)

— article doi:10.1101/2025.09.04.674342, “Tandem association of CLOCK:BMAL1 complexes on DNA enables recruitment of CBP/p300 through multivalent interactions” (bioRxiv, 2025)
